We go through 1 substance from article PMC10453637.

For the data set, the system named is O=C1CCCCC1. Nature of the data set: purified protein. The conditions noted are these: apparent, 0.3 mM NADPH, 50 mM sodium phosphate pH 7.7, 25 °C.

Usually Km stands for the substrate concentration at which the rate is half of its maximum. Turning to “Ac CHMO (cyclohexanone monooxygenase) (Acinetobacter johnsonii)”, the Km was determined as 4.09 ± 1.81 µM.
